Values joined by “and” are separate entries in the source; they are usually repeats but may differ in a detail not shown here. Equal entries are not always repeated.
Experiments:
human OPGbp [143-317] [1] = target: T1, human OPGbp [143-317] (human, UniProt O14788 143-317); test: SPR (BIAcore), OPGbp on CM5 chip (47 RU)
T1 construct: also called OPGL
T1 sequence (looked up): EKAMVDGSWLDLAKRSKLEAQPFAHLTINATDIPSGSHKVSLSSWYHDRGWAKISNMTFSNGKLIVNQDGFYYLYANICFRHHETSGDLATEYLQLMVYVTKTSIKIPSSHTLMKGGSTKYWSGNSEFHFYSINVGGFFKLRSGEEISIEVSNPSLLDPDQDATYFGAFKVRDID
Method: (§1) The binding constant (Kd), on rate constant (ka) and off rate constant (kd) for Fabs “AT” and “Y” and “AT” antibody were determined by surface plasmon resonance techniques (BIAcore, Pharmacia, Piscataway, N.J.) and the results are shown in Table II. Fabs were prepared as described in Example 4 and “AT” antibody prepared as described in Example 7. OPGbp was immobilized on a CM5-chip by standard amine coupling. The Kd and rate constants were determined by BIAEVALUATION 3.0 software (Pharmacia).

human OPGbp [143-317] [2] = target: T1, human OPGbp [143-317]; test: SPR (BIAcore), immobilized OPGbp [143-317]
murine OPGbp[158-316] = target: T2, murine OPGbp[158-316] (murine, UniProt O35235 158-316); test: EIA on plates coated with murine OPGbp[158-316]
T2 sequence: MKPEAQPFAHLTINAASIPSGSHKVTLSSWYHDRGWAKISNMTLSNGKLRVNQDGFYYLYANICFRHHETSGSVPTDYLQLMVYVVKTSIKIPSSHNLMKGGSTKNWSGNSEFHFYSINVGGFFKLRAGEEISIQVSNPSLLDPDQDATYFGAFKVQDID
Method: After overnight incubation, the protein solutions were removed from the plate and 200 μl of 5% Chicken Serum (Gibco/BRL Cat#16110-082) in PBST (PBS plus 0.05% Tween 20) was added to each well of the plate and plates were incubated at room temperature (RT) for 90 min with agitation. After incubation and blocking, plates were washed 4 times with 1×K-P wash solution in dH₂O (Cat#50-63-00, Kirkegaard & Perry Laboratories) and dried. […] Plates were incubated for three hours at room temperature with agitation, washed four times with 1× K-P wash solution and dried. Goat anti-human IgG (Fc) (Jackson ImmunoResearch, Cat#109-036-098) was diluted 1:5000 in 5% Chicken Serum in PBST and 100 μl was added to each well. […] 100 μl of undiluted ABTS substrate (Kirkegaard & Perry; Cat#50-66-00) was added to each well and the dish was incubated at room temperature until sufficient blue-green color developed. Color development was stopped by addition of 100 μl 1% SDS. Quantitation of color development was performed using a microtiter plate reader with detection at 405 nm.

human OPGbp [143-317] [3] = target: T1, human OPGbp [143-317]; test: cell-based or functional assay
human OPGbp [143-317] [4] = target: T1, human OPGbp [143-317]; test: SPR (BIAcore), OPGbp on CM5 chip (80 RU)
Method: as §1

human OPGbp [143-317] [5] = target: T1, human OPGbp [143-317]; test: SPR (BIAcore), OPGbp on CM5 chip (147 RU)
Method: as §1

- Kd (human OPGbp [143-317] [1]): 0.43 nM
- koff (human OPGbp [143-317] [1]): 0.0031 s⁻¹
- kon (human OPGbp [143-317] [1]): 7.3e+06 M⁻¹ s⁻¹
- Kd (human OPGbp [143-317] [2]): 1.18 nM
- koff (human OPGbp [143-317] [2]): 0.002 s⁻¹
- kon (human OPGbp [143-317] [2]): 1.7e+06 M⁻¹ s⁻¹
- RAW cell assay, IC50, preparation “AT”405 (human OPGbp [143-317] [3]): 3 ug/ml and 20.1 nM
- RAW cell assay, IC50, preparation “AT”406 (human OPGbp [143-317] [3]): 60.3 nM and 9 ug/ml
- RAW cell assay, IC50, preparation “AT”407 (human OPGbp [143-317] [3]): 21.4 nM and 3.2 ug/ml
- bone marrow assay, inhibition of TRAP formation, IC50, preparation “AT”406 (human OPGbp [143-317] [3]): 2.35 µg/ml and 14.4 nM
- murine bone marrow assay, IC50, preparation “AT”405 (human OPGbp [143-317] [3]): 2.15 ug/ml and 14.4 nM
- murine bone marrow assay, IC50, preparation “AT”407 (human OPGbp [143-317] [3]): 1.85 ug/ml and 12.5 nM
- Kd (human OPGbp [143-317] [4]): 0.33 nM
- koff (human OPGbp [143-317] [4]): 0.0027 s⁻¹
- kon (human OPGbp [143-317] [4]): 8.1e+06 M⁻¹ s⁻¹
- Kd (human OPGbp [143-317] [5]): 0.42 nM
- koff (human OPGbp [143-317] [5]): 0.0024 s⁻¹
- kon (human OPGbp [143-317] [5]): 5.7e+06 M⁻¹ s⁻¹
B1: “AT” antibody (full-length human IgG1) (antibody, V domains shown)
VH: QVQLVQSGAEVRKPGASVKVSCKASGYDFSNYAIHWVRQAPGQRLEWMGWINAGNGNTKFSQKFQGRITVTRDTAASTAYMELRSLRSEDTAVYYCARDSSNMVRGIIIAYYFDYWGQGTLVTVSS
VL: EIVMTQSPSSLSASVGDRVTITCRASQSISRYLNWYQLKPGKAPRLLIYGASSLQSGVPSRFSGSGSGAEFTLTISSLQPEDIATYYCQHTRAFGQGTKVEIKR
notes: Expressed in CHO cells; also called “AT” Ab; not shown: human IgG1 CH1, hinge, CH2 and CH3
- binding result (murine OPGbp[158-316]): no binding (tested: 2 ug/ml down to 1.953 ng/ml)
